The data set concerns Escherichia coli TOP10. Put plainly: shrunken log2 fold change of peptide-encoding DNA abundance (4.5 h post-induction vs induction); higher = less antimicrobial activity (less host growth inhibition). The conditions noted are these: time post-induction: 4.5 h; library: site-saturation at positions 5, 18, 19, 20.
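Also: peptides expressed intracellularly from a pBAD plasmid library in pooled LB shake-flask culture, induced with 0.3% L-arabinose, DNA abundance read by NGS, three biological replicates, DESeq2 with apeglm shrinkage.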

RRIRDRPPRLPRPRPRPWQWPRP: the “shrunken log2 fold change” value was -0.0124.
Consider RRIRSRPPRLPRPRPRPYEVPRP, for which the “shrunken log2 fold change” value was found to be 0.07.
Regarding RRIRLRPPRLPRPRPRPGNKPRP, the “shrunken log2 fold change” value was -0.46.
Take RRIRIRPPRLPRPRPRPVSHPRP: the “shrunken log2 fold change” value worked out at 0.113.
As for RRIRERPPRLPRPRPRPDSAPRP, the “shrunken log2 fold change” value is -0.213.
For RRIRSRPPRLPRPRPRPSLPPRP, the “shrunken log2 fold change” value was -0.352.
Take RRIRWRPPRLPRPRPRPWGKPRP: the “shrunken log2 fold change” value was 0.0784.
RRIRCRPPRLPRPRPRPLWNPRP: the “shrunken log2 fold change” value is -0.208.
As to RRIRLRPPRLPRPRPRPFSKPRP, the “shrunken log2 fold change” value is -0.456.
On to RRIRRRPPRLPRPRPRPAEPPRP, for which the “shrunken log2 fold change” value was 0.723.
On to RRIRYRPPRLPRPRPRPKYMPRP, for which the “shrunken log2 fold change” value was -0.998.
As for RRIRRRPPRLPRPRPRPMCTPRP, the “shrunken log2 fold change” value was 0.459.
As for RRIRDRPPRLPRPRPRPKILPRP, the figure is 0.042; as for RRIRMRPPRLPRPRPRPWKGPRP, -0.00192; as for RRIRLRPPRLPRPRPRPQLWPRP, -0.195.
With RRIRERPPRLPRPRPRPWAVPRP, the “shrunken log2 fold change” value is -0.0984.
For the sequence RRIRSRPPRLPRPRPRPHGMPRP, the “shrunken log2 fold change” value was -0.21.
As for RRIRYRPPRLPRPRPRPETEPRP, the “shrunken log2 fold change” value came to 0.0184.
Regarding RRIRPRPPRLPRPRPRPVFQPRP, the “shrunken log2 fold change” value came to 0.315.
Consider RRIRHRPPRLPRPRPRPCISPRP, for which the “shrunken log2 fold change” value is -0.13.
Turning to RRIRNRPPRLPRPRPRPCWHPRP, the “shrunken log2 fold change” value was -0.0656.
Turning to RRIRDRPPRLPRPRPRPSIPPRP, the “shrunken log2 fold change” value is -0.43.
On to RRIRYRPPRLPRPRPRPDPHPRP, for which the “shrunken log2 fold change” value is -0.356.
With RRIRCRPPRLPRPRPRPCDWPRP, the “shrunken log2 fold change” value stood at 0.116.
On to RRIRVRPPRLPRPRPRPIVNPRP, for which the “shrunken log2 fold change” value was -0.11.
Consider RRIRERPPRLPRPRPRPNMNPRP, for which the “shrunken log2 fold change” value was -0.808.
As to RRIRARPPRLPRPRPRPGHMPRP, the “shrunken log2 fold change” value was -0.0412.
Take RRIRMRPPRLPRPRPRPTSKPRP: the “shrunken log2 fold change” value is 0.0886.
As for RRIRSRPPRLPRPRPRPYIAPRP, the “shrunken log2 fold change” value is -0.917.
On to RRIRDRPPRLPRPRPRPEVAPRP, for which the “shrunken log2 fold change” value amounted to 0.563.
For the sequence RRIRHRPPRLPRPRPRPCFNPRP, the “shrunken log2 fold change” value is -0.588.
With RRIRRRPPRLPRPRPRPKQKPRP, the “shrunken log2 fold change” value was determined as 0.264.
With RRIRHRPPRLPRPRPRPEHWPRP, the “shrunken log2 fold change” value is 0.237.
As for RRIRGRPPRLPRPRPRPKFYPRP, the figure is -0.278; as for RRIRSRPPRLPRPRPRPREVPRP, -0.0353; as for RRIRTRPPRLPRPRPRPGTMPRP, -0.254.
Regarding RRIRYRPPRLPRPRPRPETVPRP, the “shrunken log2 fold change” value is -0.0477.
Turning to RRIRERPPRLPRPRPRPYPSPRP, the “shrunken log2 fold change” value is -0.967.
The result for RRIRTRPPRLPRPRPRPHCMPRP reads -0.153; that for RRIRVRPPRLPRPRPRPEWIPRP, -0.0835.
As for RRIRNRPPRLPRPRPRPRWVPRP, the figure is -0.172; as for RRIRWRPPRLPRPRPRPDALPRP, 0.63.
As for RRIRLRPPRLPRPRPRPHPEPRP, the “shrunken log2 fold change” value was 0.0233.
The result for RRIRTRPPRLPRPRPRPLTVPRP reads -0.267.
The result for RRIRHRPPRLPRPRPRPNGWPRP reads 0.42; that for RRIRTRPPRLPRPRPRPANGPRP, -0.213; that for RRIRWRPPRLPRPRPRPDQYPRP, -0.154.
On to RRIRMRPPRLPRPRPRPTITPRP, for which the “shrunken log2 fold change” value stood at 0.114.
For RRIRARPPRLPRPRPRPPTNPRP, the “shrunken log2 fold change” value was 0.678.
Take RRIRCRPPRLPRPRPRPDMLPRP: the “shrunken log2 fold change” value was -0.283.
Take RRIRTRPPRLPRPRPRPLKHPRP: the “shrunken log2 fold change” value was -0.315.
In the case of RRIRLRPPRLPRPRPRPMARPRP, the “shrunken log2 fold change” value was found to be 0.0339.
Take RRIRHRPPRLPRPRPRPYRYPRP: the “shrunken log2 fold change” value is -0.177.
In the case of RRIRCRPPRLPRPRPRPIMKPRP, the “shrunken log2 fold change” value was -0.649.
The result for RRIRKRPPRLPRPRPRPDMQPRP reads -0.0618.
The result for RRIRRRPPRLPRPRPRPDPDPRP reads -0.0342.
Turning to RRIRYRPPRLPRPRPRPVRMPRP, the “shrunken log2 fold change” value is -0.246.
For RRIRSRPPRLPRPRPRPGPFPRP, the “shrunken log2 fold change” value turned out to be 0.00218.
The result for RRIRPRPPRLPRPRPRPVRGPRP reads 0.898.
For the sequence RRIRFRPPRLPRPRPRPSCCPRP, the “shrunken log2 fold change” value was -0.443.
As for RRIRARPPRLPRPRPRPKPYPRP, the figure is 0.0727.
For the sequence RRIRRRPPRLPRPRPRPKVCPRP, the “shrunken log2 fold change” value amounted to 0.0559.
As to RRIRMRPPRLPRPRPRPTLMPRP, the “shrunken log2 fold change” value was 0.0126.
Consider RRIRMRPPRLPRPRPRPWSEPRP, for which the “shrunken log2 fold change” value turned out to be 0.0897.
With RRIRERPPRLPRPRPRPVISPRP, the “shrunken log2 fold change” value was -0.145.
As to RRIRWRPPRLPRPRPRPQGMPRP, the “shrunken log2 fold change” value is -0.225.
For the sequence RRIRTRPPRLPRPRPRPMYYPRP, the “shrunken log2 fold change” value stood at 0.0219.
Take RRIRHRPPRLPRPRPRPSQPPRP: the “shrunken log2 fold change” value was -0.184.
Consider RRIRKRPPRLPRPRPRPCTVPRP, for which the “shrunken log2 fold change” value was determined as 0.23.
The result for RRIRKRPPRLPRPRPRPWTDPRP reads -0.00992; that for RRIRQRPPRLPRPRPRPSICPRP, -0.443.
For the sequence RRIRPRPPRLPRPRPRPPHWPRP, the “shrunken log2 fold change” value was 0.865.
RRIRTRPPRLPRPRPRPAFYPRP: the “shrunken log2 fold change” value is 0.116.
Regarding RRIRWRPPRLPRPRPRPRADPRP, the “shrunken log2 fold change” value came to 0.667.
On to RRIRTRPPRLPRPRPRPCERPRP, for which the “shrunken log2 fold change” value is -0.018.
In the case of RRIRCRPPRLPRPRPRPQCDPRP, the “shrunken log2 fold change” value is -0.264.
Consider RRIRTRPPRLPRPRPRPQIDPRP, for which the “shrunken log2 fold change” value is -0.269.
As for RRIRLRPPRLPRPRPRPWHTPRP, the figure is -0.314.
The result for RRIRDRPPRLPRPRPRPLYYPRP reads 0.176; that for RRIRIRPPRLPRPRPRPEWCPRP, 0.0249; that for RRIRLRPPRLPRPRPRPMFEPRP, -0.00818.
Regarding RRIRNRPPRLPRPRPRPSLPPRP, the “shrunken log2 fold change” value was -0.378.
On to RRIRQRPPRLPRPRPRPQPLPRP, for which the “shrunken log2 fold change” value is -0.0826.
Turning to RRIRQRPPRLPRPRPRPLDPPRP, the “shrunken log2 fold change” value was -0.408.
Consider RRIRVRPPRLPRPRPRPAYPPRP, for which the “shrunken log2 fold change” value is -0.179.
The result for RRIRFRPPRLPRPRPRPTWKPRP reads 0.32.
In the case of RRIRFRPPRLPRPRPRPYTPPRP, the “shrunken log2 fold change” value was -1.28.
The result for RRIRLRPPRLPRPRPRPFQLPRP reads -0.402; that for RRIRWRPPRLPRPRPRPPPFPRP, 0.22.
As to RRIRQRPPRLPRPRPRPVHDPRP, the “shrunken log2 fold change” value was 0.0147.
With RRIRDRPPRLPRPRPRPPRAPRP, the “shrunken log2 fold change” value came to 1.1.
Turning to RRIRARPPRLPRPRPRPFPYPRP, the “shrunken log2 fold change” value is -0.164.
As to RRIRQRPPRLPRPRPRPNDIPRP, the “shrunken log2 fold change” value was -0.348.
Consider RRIRERPPRLPRPRPRPCRLPRP, for which the “shrunken log2 fold change” value was -0.197.
For the sequence RRIRVRPPRLPRPRPRPATGPRP, the “shrunken log2 fold change” value was found to be 0.119.
Take RRIRWRPPRLPRPRPRPYKFPRP: the “shrunken log2 fold change” value is -0.22.
As for RRIRDRPPRLPRPRPRPVHNPRP, the “shrunken log2 fold change” value is -0.585.
Consider RRIRARPPRLPRPRPRPPMYPRP, for which the “shrunken log2 fold change” value was -0.147.
With RRIRDRPPRLPRPRPRPQPMPRP, the “shrunken log2 fold change” value is -0.0809.
With RRIRQRPPRLPRPRPRPRHPPRP, the “shrunken log2 fold change” value was 0.283.
Turning to RRIRIRPPRLPRPRPRPINKPRP, the “shrunken log2 fold change” value was -1.11.
Consider RRIRGRPPRLPRPRPRPVDSPRP, for which the “shrunken log2 fold change” value worked out at 0.0597.
Take RRIRYRPPRLPRPRPRPLLAPRP: the “shrunken log2 fold change” value is -0.197.
For RRIRKRPPRLPRPRPRPWFWPRP, the “shrunken log2 fold change” value worked out at 0.442.
The result for RRIRMRPPRLPRPRPRPSVKPRP reads 0.185; that for RRIRSRPPRLPRPRPRPVQHPRP, -0.0389.
Consider RRIRFRPPRLPRPRPRPVSHPRP, for which the “shrunken log2 fold change” value is -0.266.
The result for RRIRRRPPRLPRPRPRPVRKPRP reads -0.0548.
As for RRIRLRPPRLPRPRPRPCMTPRP, the figure is 0.0964.
On to RRIRCRPPRLPRPRPRPMAMPRP, for which the “shrunken log2 fold change” value came to 0.106.
RRIRQRPPRLPRPRPRPVHYPRP: the “shrunken log2 fold change” value was -0.0228.
With RRIRFRPPRLPRPRPRPLEDPRP, the “shrunken log2 fold change” value was -0.0439.
The result for RRIRWRPPRLPRPRPRPDCGPRP reads 0.885.
Turning to RRIRARPPRLPRPRPRPERCPRP, the “shrunken log2 fold change” value was 1.09.
In the case of RRIRARPPRLPRPRPRPFGIPRP, the “shrunken log2 fold change” value is 0.0411.
The result for RRIRGRPPRLPRPRPRPEAQPRP reads 1.61; that for RRIRCRPPRLPRPRPRPHFRPRP, -0.308; that for RRIRRRPPRLPRPRPRPMGVPRP, 0.324.
Consider RRIRFRPPRLPRPRPRPTLTPRP, for which the “shrunken log2 fold change” value was 0.445.
As for RRIRIRPPRLPRPRPRPMCHPRP, the “shrunken log2 fold change” value is -0.316.
The result for RRIRKRPPRLPRPRPRPKHRPRP reads 0.237; that for RRIRHRPPRLPRPRPRPPHRPRP, 0.198; that for RRIRDRPPRLPRPRPRPMNPPRP, -0.0564.
For the sequence RRIRYRPPRLPRPRPRPKARPRP, the “shrunken log2 fold change” value was 0.0182.
Regarding RRIRVRPPRLPRPRPRPLEMPRP, the “shrunken log2 fold change” value is -0.308.

These data come from the supplement of paper PMC9112550, “Optimization of the antimicrobial peptide Bac7 by deep mutational scanning” (BMC Biology, 2022).
